# Target: the molecule itself
# Experiment: fluorescence correlation spectroscopy (FCS); protein adsorbed on supported lipid bilayers with 96% DOPC and 4% PIP3; two-dimensional diffusion rate measured against surface density; fit to a 2D diffusion model; imaging buffer HBSS with 0.01% w/v beta-casein, with scavenging mixture
protein,measurement,value
"BTK PH–TH module (residues 1–171), wild type, with C-terminal mNeonGreen (domain or fragment, human, UniProt Q06187 1-171, looked up, Bruton's tyrosine kinase (BTK), human, pleckstrin-homology and tec-homology domains (PH–TH module), residues 1–171; ZnCl2 was added during expression; also called PH–TH^WT; source: E. coli BL21-DE3, purified (HisTrap, SUMO protease cleavage, second HisTrap, Superdex 75); not shown: His6, N-terminal, cleaved; SUMO, N-terminal, cleaved; mNeonGreen, C-terminal, kept) MAAVILESIFLKRSQQKKKTSPLNFKKRLFLLTVHKLSYYEYDFERGRRGSKKGSIDVEKITCVETVVPEKNPPPERQIPRRGEESSEMEQISIIERFPYPFQVVYDEGPLYVFSPTEELRKRWIHQLKNVIRYNSDLVQKYHPCFWIDGQYLCCSQTAKNAMGCQILENR",binding result,binds

# Reference: publication doi:10.1101/2023.10.05.561114, “Conditional Requirement for Dimerization of the Membrane-Binding Module of BTK” (bioRxiv, 2023)
